B1: Monopolin complex subunit CSM1 (Saccharomyces cerevisiae), P25651 (parent)
chain: MDPLTVYKNSVKQQIDSADLLVANLVNENFVLSEKLDTKATEIKQLQKQIDSLNAQVKELKTQTSQQAENSEVIKDLYEYLCNVRVHKSYEDDSGLWFDISQGTHSGGSSDDYSIMDYKLGFVKGQAQVTEVIYAPVLKQRSTEELYSLQSKLPEYLFETLSFPLSSLNQFYNKIAKSLNKKREKKDETE
partner: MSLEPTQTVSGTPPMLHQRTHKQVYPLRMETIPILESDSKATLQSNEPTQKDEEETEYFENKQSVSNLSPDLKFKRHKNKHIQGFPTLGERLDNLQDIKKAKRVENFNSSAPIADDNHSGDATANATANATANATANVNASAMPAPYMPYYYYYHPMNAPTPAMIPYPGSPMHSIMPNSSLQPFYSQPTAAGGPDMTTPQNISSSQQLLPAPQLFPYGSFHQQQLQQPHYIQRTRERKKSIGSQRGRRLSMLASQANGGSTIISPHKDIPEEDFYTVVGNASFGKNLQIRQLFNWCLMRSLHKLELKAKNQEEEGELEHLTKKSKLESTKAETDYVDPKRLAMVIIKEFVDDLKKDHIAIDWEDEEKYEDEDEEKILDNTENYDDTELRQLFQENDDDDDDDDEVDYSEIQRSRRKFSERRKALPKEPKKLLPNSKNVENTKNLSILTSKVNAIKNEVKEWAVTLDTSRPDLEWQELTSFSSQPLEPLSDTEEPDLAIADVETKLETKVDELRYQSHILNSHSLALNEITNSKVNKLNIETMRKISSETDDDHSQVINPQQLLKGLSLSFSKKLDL
B2: Monopolin complex subunit pcs1 (Schizosaccharomyces pombe (strain ATCC 38366 / 972)), O13684 (parent)
chain: MRKNNMQTSKDSELKEQAKGKSSKLIHKLPKQRTRISQGQMHSTQDFVNNEDQDAYSVRENENELHINNSGMSELNKKLQLPNVELSTLSHTQEQEFNELNKLIRKINELQEFYLLEDLAKPVTNAGADADDTIVKDLKKELENEKKANHSLKNELLKTREQIKNYSKINILIKELFGLEVADCIEDEDGYRFNCKNTGRRGTLEYQLLLDDQNFTFTPRLNVQTDEELMKHLPDYLLEEIIFTKEQGKLFSARLMKALQD
partner: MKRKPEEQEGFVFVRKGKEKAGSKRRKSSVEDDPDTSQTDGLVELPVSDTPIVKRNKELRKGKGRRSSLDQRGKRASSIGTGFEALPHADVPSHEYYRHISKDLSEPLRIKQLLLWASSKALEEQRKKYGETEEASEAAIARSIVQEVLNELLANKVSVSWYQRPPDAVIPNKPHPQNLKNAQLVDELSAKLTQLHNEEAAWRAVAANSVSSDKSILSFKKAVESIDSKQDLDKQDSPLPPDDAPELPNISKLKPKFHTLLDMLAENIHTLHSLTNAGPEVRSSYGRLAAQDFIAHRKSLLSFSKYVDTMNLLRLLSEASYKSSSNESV

Here are results for nine variants from IntAct's records for PubMed 20723757.

In the first experiment the parent is B1. The settings on record: with dsn1_yeast DSN1, P40568.
For MDPLTVYKNSVKQQIDSADLLVANLVNENFVLSEKLDTKATEIKQLQKQIDSLNAQVKELKTQTSQQAENSEVIKDLYEYLCNVRVHKSYEDDSGLWFDISQGTHSGGSSDDYSIMDYKLGFVKGQAQVTEVIYAPVLKQRSTEELYSLQSKLPEELFETLSFPLSSLNQFYNKIAKSLNKKREKKDETE [Y156E], the “effect of a mutation on the interaction” value is “decreasing interaction”. As for MDPLTVYKNSVKQQIDSADLLVANLVNENFVLSEKLDTKATEIKQLQKQIDSLNAQVKELKTQTSQQAENSEVIKDLYEYLCNVRVHKSYEDDSGLWFDISQGTHSGGSSDDYSIMDYKLGFVKGQAQVTEVIYAPVLKQRSTEELYSLQSKLPEYLFETKSFPLSSLNQFYNKIAKSLNKKREKKDETE [L161K], the “effect of a mutation on the interaction” value is recorded as “decreasing interaction”. With MDPLTVYKNSVKQQIDSADLLVANLVNENFVLSEKLDTKATEIKQLQKQIDSLNAQVKELKTQTSQQAENSEVIKDLYEYLCNVRVHKSYEDDSGLWFDISQGTHSGGSSDDYSIMDYKLGFVKGQAQVTEVIYAPVLKQRSTEELYSLQSKLPEYLFETDSFPLSSLNQFYNKIAKSLNKKREKKDETE [L161D], the “effect of a mutation on the interaction” value is “decreasing interaction”.

In a further experiment the parent is B2. The settings on record: with mis13_schpo mis13, Q9UUB5.
In the case of MRKNNMQTSKDSELKEQAKGKSSKLIHKLPKQRTRISQGQMHSTQDFVNNEDQDAYSVRENENELHINNSGMSELNKKLQLPNVELSTLSHTQEQEFNELNKLIRKINELQEFYLLEDLAKPVTNAGADADDTIVKDLKKELENEKKANHSLKNELLKTREQIKNYSKINILIKELFGLEVADCIEDEDGYRFNCKNTGRRGTLEYQLLLDDQNFTFTPRLNVQTDEELMKHLPDALLEEIIFTKEQGKLFSARLMKALQD [Y236A], the “effect of a mutation on the interaction” value is reported as “decreasing interaction”. With MRKNNMQTSKDSELKEQAKGKSSKLIHKLPKQRTRISQGQMHSTQDFVNNEDQDAYSVRENENELHINNSGMSELNKKLQLPNVELSTLSHTQEQEFNELNKLIRKINELQEFYLLEDLAKPVTNAGADADDTIVKDLKKELENEKKANHSLKNELLKTREQIKNYSKINILIKELFGLEVADCIEDEDGYRFNCKNTGRRGTLEYQLLLDDQNFTFTPRLNVQTDEELMKHLPDELLEEIIFTKEQGKLFSARLMKALQD [Y236E], the “effect of a mutation on the interaction” value is recorded as “decreasing interaction”.

For the variant MRKNNMQTSKDSELKEQAKGKSSKLIHKLPKQRTRISQGQMHSTQDFVNNEDQDAYSVRENENELHINNSGMSELNKKLQLPNVELSTLSHTQEQEFNELNKLIRKINELQEFYLLEDLAKPVTNAGADADDTIVKDLKKELENEKKANHSLKNELLKTREQIKNYSKINILIKELFGLEVADCIEDEDGYRFNCKNTGRRGTLEYQLLLDDQNFTFTPRLNVQTDEELMKHLPDKLLEEIIFTKEQGKLFSARLMKALQD [Y236K], the “effect of a mutation on the interaction” value is “decreasing interaction”. Same read-out and setting: for MRKNNMQTSKDSELKEQAKGKSSKLIHKLPKQRTRISQGQMHSTQDFVNNEDQDAYSVRENENELHINNSGMSELNKKLQLPNVELSTLSHTQEQEFNELNKLIRKINELQEFYLLEDLAKPVTNAGADADDTIVKDLKKELENEKKANHSLKNELLKTREQIKNYSKINILIKELFGLEVADCIEDEDGYRFNCKNTGRRGTLEYQLLLDDQNFTFTPRLNVQTDEELMKHLPDYLLEEAIFTKEQGKLFSARLMKALQD [I241A] the value was “decreasing interaction”. Still for that read-out and setting: for MRKNNMQTSKDSELKEQAKGKSSKLIHKLPKQRTRISQGQMHSTQDFVNNEDQDAYSVRENENELHINNSGMSELNKKLQLPNVELSTLSHTQEQEFNELNKLIRKINELQEFYLLEDLAKPVTNAGADADDTIVKDLKKELENEKKANHSLKNELLKTREQIKNYSKINILIKELFGLEVADCIEDEDGYRFNCKNTGRRGTLEYQLLLDDQNFTFTPRLNVQTDEELMKHLPDYLLEEDIFTKEQGKLFSARLMKALQD [I241D] the value was “decreasing interaction”; for MRKNNMQTSKDSELKEQAKGKSSKLIHKLPKQRTRISQGQMHSTQDFVNNEDQDAYSVRENENELHINNSGMSELNKKLQLPNVELSTLSHTQEQEFNELNKLIRKINELQEFYLLEDLAKPVTNAGADADDTIVKDLKKELENEKKANHSLKNELLKTREQIKNYSKINILIKELFGLEVADCIEDEDGYRFNCKNTGRRGTLEYQLLLDDQNFTFTPRLNVQTDEELMKHLPDYLLEEKIFTKEQGKLFSARLMKALQD [I241K], “decreasing interaction”.
